This passage reports protein stability index results from the supplement of paper PMC10567573.

± gives the standard deviation.

The nature of the data set: protein stability index of a GFP-peptide fusion (GPS, HEK-293T) (PSI 1-6); higher = more stable. As to conditions: c terminus: a fixed tail appended.
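Note: 24-mer peptide tiles fused after GFP, lentivirally expressed, FACS-sorted into six equal bins by GFP/DsRed ratio, decoded by Illumina sequencing, PSI is the read-weighted mean bin number.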

On to KLHEIFRGLHEDLQGVPERLLGTA [VTI1B], for which the protein stability index is, setting by setting: (treatment: DMSO) 2.48 ± 0.3; (treatment: MLN4924 1 uM, 8 h) 2.72 ± 0.74.
In the same order, the values of KLLHIYYQNSIDDRLLVERIFAQY [PDS5B] are 2.68 ± 0.63 and 3.39 ± 0.59.
In the same order, the values of KLLNRCCHLFSTYVASHKIEKEEQ [ACBD3] are 2.21 ± 0.1 and 2.23 ± 0.28.
Taken in the same sequence, the figures for KLLQGEEERLKLSPSPSSRVTVSR [LMNB1] were 4.13 ± 0.23 and 4.13 ± 0.3.
KMEIYQKENKDVIQKNKLKLTREQ [MNAT1]: the protein stability index reads like this: (treatment: DMSO) 3.89 ± 0.41; (treatment: MLN4924 1 uM, 8 h) 4.16 ± 0.34.
As for KMELGIDLLAYGAKAELPKYKSFN [MYOZ1], the protein stability index reads like this: (treatment: DMSO) 2.59 ± 0.23; (treatment: MLN4924 1 uM, 8 h) 2.77 ± 0.24.
Taken in the same sequence, the figures for KMFLRTREPALDGGFQMHYEKTPF [EID1] were 2.83 ± 0.25 and 3.05 ± 0.4.
Taken in the same sequence, the figures for KNELERDSKIVVPPLPGKALKRQL [SNX12] were 4.5 ± 0.26 and 4.56 ± 0.2.
In the same order, the values of KNEVGGLIKALKIFQEKHVNLLHI [TPH1] are 2.02 ± 0.43 and 2.12 ± 0.011.
Consider KNIVIADFVMSLTFPFKILGDSGL [P2RY14], for which the protein stability index is, setting by setting: (treatment: DMSO) 3.04 ± 0.65; (treatment: MLN4924 1 uM, 8 h) 2.99 ± 0.38.
In the same order, the values of KNLYTNEYVAIKLEPMKSRAPQLH [CSNK1G3] are 2.55 ± 0.28 and 2.5 ± 0.13.
Take KPGNNEGSGAPSPLSKSSPATTVT [SNAP91]: the protein stability index came to 5.21 ± 0.11 (treatment: DMSO) and 5.1 ± 0.13 (treatment: MLN4924 1 uM, 8 h).
In the same order, the values of KPGPITLTVAKCWDPSPRGCFTLP [DVL3] are 2.41 ± 0.32 and 2.59 ± 0.11.
Taken in the same sequence, the figures for KPLDLSDSTLSYTETEATNSLITA [SMAD6] were 4.82 ± 0.2 and 4.92 ± 0.059.
As to KQPPLSTVPADGYILELDDGNGGQ [TRIM9], the protein stability index runs as follows: (treatment: DMSO) 5.07 ± 0.12; (treatment: MLN4924 1 uM, 8 h) 5.07 ± 0.2.
Consider KQQRNEVSFVIHNLPIIAKMAAVS [SEPHS2], for which the protein stability index came to 2.51 ± 0.61 (treatment: DMSO) and 2.35 ± 0.36 (treatment: MLN4924 1 uM, 8 h).
With KRPAWGSRRFEAVGWWALLALVTL [POMT2], the protein stability index (treatment: DMSO) is 2.64 ± 0.71 and the protein stability index (treatment: MLN4924 1 uM, 8 h) came to 2.29 ± 0.24.
With KSNVLKLKTADWRVFLFQAPSKEE [PSD2], the protein stability index (treatment: DMSO) is 2.33 ± 0.077 and the protein stability index (treatment: MLN4924 1 uM, 8 h) stood at 2.44 ± 0.28.
In the same order, the values of KSSLIWSYPAGSLTFPVRPFFYTG [TRIM43] are 2.19 ± 0.26 and 2.08 ± 0.18.
As to KWDAENAIQQMGGQWLGGRQIRTN [TIA1], the protein stability index (treatment: DMSO) came out at 3.51 ± 0.28 and the protein stability index (treatment: MLN4924 1 uM, 8 h) is 3.56 ± 0.3.
In the same order, the values of KYENELALRQSVEADINGLRRVLD [KRT13] are 3.57 ± 0.17 and 3.65 ± 0.29.
In the same order, the values of KYLVEHKADLEVSNRHGHTCLMIS [FEM1C] are 2.53 ± 0.12 and 2.67 ± 0.23.
In the same order, the values of LAARRQWRDECLMRLAKLKSQVQP [CRYL1] are 2.35 ± 0.36 and 2.52 ± 0.79.
On to LALRQGVEADINGLRRVLDELTLA [KRT15], for which the protein stability index reads like this: (treatment: DMSO) 2.51 ± 0.26; (treatment: MLN4924 1 uM, 8 h) 2.65 ± 0.4.
For LAPIHKLEEALYEYQPLQIETYGP [MNAT1], the protein stability index (treatment: DMSO) stood at 2.41 ± 0.46 and the protein stability index (treatment: MLN4924 1 uM, 8 h) amounted to 2.71 ± 0.49.
In the same order, the values of LASSLGNLNAATDDPENKKTSSSS [CDC14A] are 5.43 ± 0.15 and 5.53 ± 0.15.
In the same order, the values of LCLDLAPSETGNTFVSGGCDKKAM [GNB5] are 3.96 ± 0.15 and 4.02 ± 0.17.
Taken in the same sequence, the figures for LDELLGRGMATKLLARPGTGEHRE [FBF1] were 3.75 ± 0.17 and 4.09 ± 0.29.
Sequence LDPRYKRLPFLSAFERQQVENRVV [ZBED1] came in with a protein stability index (treatment: DMSO) of 3.36 ± 0.091 and a protein stability index (treatment: MLN4924 1 uM, 8 h) of 3.47 ± 0.13.
Taken in the same sequence, the figures for LDSCKQLTLAQGAGEEDPSGMVTI [SMG5] were 4.46 ± 0.16 and 4.49 ± 0.4.
In the same order, the values of LDVTVQSFGWSDRAKVKTDDIARI [FAM98B] are 2.98 ± 0.28 and 2.89 ± 0.36.
Taken in the same sequence, the figures for LEDKLRLLAQARDEAQGACLQQKQ [LRRC45] were 4.49 ± 0.33 and 4.19 ± 0.22.
For LEEVNDEGYTPLMEAAREGHEEMV [ANKRD17], the protein stability index by setting is: (treatment: DMSO) 5.49 ± 0.08; (treatment: MLN4924 1 uM, 8 h) 5.52 ± 0.23.
LEEYITDEQKEEEEEEGEEEELIR [FAM9B] gave a protein stability index (treatment: DMSO) of 5.37 ± 0.15 and a protein stability index (treatment: MLN4924 1 uM, 8 h) of 5.59 ± 0.33.
On to LEGYISNLRKQLETLSGDRVRLDS [KRT71], for which the protein stability index (treatment: DMSO) is 3.17 ± 0.4 and the protein stability index (treatment: MLN4924 1 uM, 8 h) was 3.26 ± 0.35.
In the same order, the values of LEMCVDARTFGNEARFIRRSCTPN [KMT2E] are 3.19 ± 0.21 and 3.13 ± 0.16.
